Substitutions are numbered along the chain they refer to. In names and notes the source's numbering stands. Values belong to the binder of their own block, whether it stands above or below them.
Experiments:
cynomolgus BCMA = cynomolgus BCMA (cynomolgus monkey); experiment: SPR
[1] = target: T1, human B-cell maturation antigen (BCMA), extracellular domain (human, UniProt Q02223 1-54); experiment: SPR
T1 chain: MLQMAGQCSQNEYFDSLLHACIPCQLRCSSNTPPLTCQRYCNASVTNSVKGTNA

cynomolgus BCMA (cynomolgus monkey), sequence (chain, as listed by the source): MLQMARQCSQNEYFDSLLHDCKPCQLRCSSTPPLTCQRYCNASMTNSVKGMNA

- Kd (cynomolgus BCMA): 2.7 nM
B1: J22.9-xi, chimaeric mouse/human IgG (antibody, V domains shown)
VH: QVQLQQSGGGLVQPGGSLKLSCAASGIDFSRYWMSWVRRAPGKGLEWIGEINPDSSTINYAPSLKDKFIISRDNAKNTLYLQMSKVRSEDTALYYCASLYYDYGDAMDYWGQGTSVTVSS
VL: DIVMTQSQRFMTTSVGDRVSVTCKASQSVDSNVAWYQQKPRQSPKALIFSASLRFSGVPARFTGSGSGTDFTLTISNLQSEDLAEYFCQQYNNYPLTFGAGTKLELK

- Kd [1]: 2.2 nM
- Kd (cynomolgus BCMA): 20 nM
B2: J22.9-FSY, humanized and CDR-optimized IgG (antibody, V domains shown)
VH: EVQLVESGGGLVQPGGSLRLSCAASGFTFSRYWFSWVRQAPGKGLVWVGEINPSSSTINYAPSLKDKFTISRDNAKNTLYLQMNSLRAEDTAVYYCASLYYDYGDAYDYWGQGTLVTVSS
VL: EIVMTQSPATLSVSPGERATLSCKASQSVESNVAWYQQKPGQAPRALIYSASLRFSGIPARFSGSGSGTEFTLTISSLQSEDFAVYYCQQYNNYPLTFGAGTKLELK

- Kd (cynomolgus BCMA): 200 nM
B3: J22.9-H, humanized IgG (all humanizing substitutions in VH and VL except A46L in VL) (antibody, V domains shown)
VH: B2 VH with F34M, S54D, Y107M
VL: B2 VL with E30D

- Kd [1]: 2 nM
- Kd (cynomolgus BCMA): 17 nM
B4: J22.9-ISY, humanized and CDR-optimized IgG (antibody, V domains shown)
VH: B2 VH with F34I
VL: B2 VL

From PMC11358308 (2024)
